In US20250092135A1 (NANJING LEADS BIOLABS, published 2025):

T1: rhesus monkey MUC16 protein (ECT_TM RhMuc16) on 293T cells (rhesus monkey)
T1 chain: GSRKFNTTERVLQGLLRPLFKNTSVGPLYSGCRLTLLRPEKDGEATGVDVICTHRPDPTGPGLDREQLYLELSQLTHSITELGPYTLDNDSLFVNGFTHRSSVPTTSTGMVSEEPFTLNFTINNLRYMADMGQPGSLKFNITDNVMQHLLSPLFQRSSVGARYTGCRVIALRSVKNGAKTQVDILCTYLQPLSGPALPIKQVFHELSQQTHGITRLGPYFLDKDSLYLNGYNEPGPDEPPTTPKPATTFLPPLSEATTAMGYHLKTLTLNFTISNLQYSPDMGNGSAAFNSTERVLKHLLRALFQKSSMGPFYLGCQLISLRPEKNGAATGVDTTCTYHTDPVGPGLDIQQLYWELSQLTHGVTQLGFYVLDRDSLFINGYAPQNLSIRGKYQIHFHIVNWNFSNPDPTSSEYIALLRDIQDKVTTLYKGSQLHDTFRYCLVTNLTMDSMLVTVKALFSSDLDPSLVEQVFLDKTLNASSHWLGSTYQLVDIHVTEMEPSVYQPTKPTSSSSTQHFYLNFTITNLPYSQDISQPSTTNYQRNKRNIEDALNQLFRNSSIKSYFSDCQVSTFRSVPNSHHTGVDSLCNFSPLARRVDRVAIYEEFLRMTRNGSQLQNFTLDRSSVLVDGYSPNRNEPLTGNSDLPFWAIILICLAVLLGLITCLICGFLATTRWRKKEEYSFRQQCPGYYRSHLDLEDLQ

B1: anti-CD3/MUC16 bispecific antibody 2MCH7-23L2 (bispecific antibody, human IgG1, kappa, L234A L235A)
heavy 1: not shown
heavy 2: EVQLVESGGGLVQPGGSLKLSCAASGFTFSTYAMNWVRQAPGKGLEWVGRIRSKYNNYATYYADSVKDRFTISRDDSKNTLYLQMNSLKTEDTAVYYCTRHGNFGNSYVSWFAYWGQGTTVTVSSGGGGSGGGGSGGGGSQAVVTQEPSLTVSPGGTVTLTCRSSTGAVTTSNYANWVQQKPGQAPRGLIGGTNKRAPGVPARFSGSLLGGKAALTLSGAQPEDEAEYFCALWYSNLWVFGGGTKLTVLGEPKSSDKTHTCPPCPAPEAAGGPSVFLFPPKPKDTLMISRTPEVTCVVVAVSHEDPEVKFNWYVDGVEVHNAKTKPREEQYNSTYRVVSVLTVLHQDWLNGKEYKCKVSNKALAAPIEKTISKAKGQPREPQVCTLPPSRDELTKNQVSLSCAVKGFYPSDIAVEWESNGQPENNYKTTPPVLDSDGSFFLVSKLTVDKSRWQQGNVFSCSVMHEALHNHYTQKSLSLSPGK
light: EIVLTQSPATLSLSPGERATLSCRASSSVIYMSWYQQKPGQAPRLLIYGTSTLASGIPARFSGSGSGTDFTLTISSLEPEDFAVYYCQQWSSNPFTFGQGTKLEIKRTVAAPSVFIFPPSDEQLKSGTASVVCLLNNFYPREAKVQWKVDNALQSGNSQESVTEQDSKDSTYSLSSTLTLSKADYEKHKVYACEVTHQGLSSPVTKSFNRGEC
notes: 2MCH7-KIH-Knob (VH-CH1-VH-CH1-Fc) + 23L2ScFv-Hole + two light chains MCL4 LC
B2: anti-CD3/MUC16 bispecific antibody MCH7-23L2 (bispecific antibody, human IgG1, kappa, L234A L235A)
heavy 1: B1 heavy 2
heavy 2: not shown
light: B1 light
notes: 23L2ScFv-Hole + MCH7-KIH-Knob + one light chain MCL4 LC

Columns and labels:
[1] = biological target: T2, human CD3 protein endogenously expressed on Jurkat cells (human, UniProt P07766 23-207); experiment: flow cytometry, Jurkat cells (endogenous CD3), PE anti-human IgG Fc secondary, MFI; EC50 table under the plot, unit from the axis Conc.(nM)
T2 construct: whole, on cells; The whole CD3 complex is on the cells; also called CD3 on Jurkat cells; CD3 on Jurkat/NFAT-luc cells
Description: (§1) (3) Whether the anti-CD3/anti-MUC16 bispecific antibodies in the present invention could bind to the CD3 protein endogenously expressed on Jurkat cells (Cell Bank of Type Culture Collection Committee of the Chinese Academy of Sciences, Cat #SCSP-513) was determined by cell binding experiments. Detection was performed using the flow cytometry described above, with the following differences: the dilution gradient for the test bispecific antibody was: a maximum concentration of 200 nM, starting from a second concentration of 100 nM, 5-fold dilution, 10 points; the bispecific antibodies were added to Jurkat cells, and the cells were incubated at 4° C. for 30 min. The cells were washed twice with PBS, and then fluorescent secondary antibody R-PE-conjugated AffiniPure Goat Anti-Human IgG, Fcγ Fragment Specific was added. The cells were incubated at 4° C. for 30 min. The cells were washed twice with PBS and then resuspended, and finally, fluorescence signals were detected using a BD Accuri C5 (BD Bioscience) flow cytometer.

[2] = biological target: T1, rhesus monkey MUC16 protein (ECT_TM …); experiment: flow cytometry, 293T/rhesus MUC16 cells as printed on the sheet and in the legend (the example, paragraph 611, speaks of cynomolgus MUC16), PE anti-human IgG Fc secondary, MFI; EC50 table under the plot, unit from the axis Conc.(nM); curve still rising at the top concentration of 100 nM
Description: (§2) Referring to the flow cytometry described above, the serially diluted test bispecific antibody (at an initial concentration of 100 nM, 5-fold dilution, 9 points) was added to the cells, and the plate was incubated at 4° C. for 30 min. The cells were washed twice with PBS, and then fluorescent secondary antibody R-PE-conjugated AffiniPure Goat Anti-Human IgG, Fcγ Fragment Specific was added. The cells were incubated at 4° C. for 30 min. The cells were washed twice with PBS and then resuspended, and finally, fluorescence signals were detected using a BD Accuri C5 (BD Bioscience) flow cytometer.

[3] = biological target: T3, human MUC16 protein endogenously expressed on cells (human, UniProt Q8WXI7 1-14507); experiment: flow cytometry, OVCAR3 cells (endogenous human MUC16), PE anti-human IgG Fc secondary, MFI; EC50 table under the plot, unit from the axis Conc.(nM)
T3 construct: whole, on cells; also called MUC16 on OVCAR3 cells; MUC16 in ovarian carcinoma tissue
Description: (1) Whether the anti-CD3/anti-MUC16 bispecific antibodies in the present invention could bind to the MUC16 protein endogenously expressed on human ovarian carcinoma cells (OVCAR3) (Cell Bank of Type Culture Collection Committee of the Chinese Academy of Sciences, Cat #TCHu228) was determined by cell binding experiments.
The experiments were performed using flow cytometry. OVCAR3 cells were digested, centrifuged and collected. The cells were resuspended in a PBS solution, and seeded into a 96-well plate (Corning, Cat #3799) at 1×10⁵ cells/well. The 96-well plate was centrifuged and then the supernatant was discarded. 100 μL of the serially diluted test bispecific antibody (at a maximum concentration of 200 nM, 5-fold dilution from 100 nM, 9 concentration points in total) was added to the OVCAR3 cells. The plate was incubated at 4° C. for 30 min and centrifuged (1000 rpm, 5 min), and then the supernatant was discarded. 100 μL of PBS solution was added to each well, and the cells were washed twice. 100 μL of fluorescent secondary antibody R-PE-conjugated AffiniPure Goat Anti-Human IgG, Fcγ Fragment Specific (Jackson ImmunoResearch, Cat #109-116-098) diluted in a ratio of 1:200 was then added. The cells were incubated at 4° C. for 30 min. After the cells were washed twice with the PBS solution, 100 μL of PBS solution was added to each well to resuspend the cells, and finally, fluorescence signals were detected using a BD Accuri C5 (BD Bioscience) flow cytometer according to the manufacturer's instructions. REGN4018 was used as a positive control.

[4] = biological target: T2, human CD3 protein endogenously …; experiment: flow cytometry, Jurkat cells (endogenous CD3), PE anti-human IgG Fc secondary, MFI; EC50 table under the plot, unit from the axis Conc.(nM); curve still rising at the top concentration
Description: as §1

[5] = biological target: T1, rhesus monkey MUC16 protein (ECT_TM …); experiment: flow cytometry, 293T/rhesus MUC16 cells as printed on the sheet and in the legend (the example, paragraph 611, speaks of cynomolgus MUC16), PE anti-human IgG Fc secondary, MFI; EC50 table under the plot, unit from the axis Conc.(nM); curve still rising at the top concentration of 100 nM, the value lies beyond the range shown
Description: as §2

T2 sequence (P07766 23-207): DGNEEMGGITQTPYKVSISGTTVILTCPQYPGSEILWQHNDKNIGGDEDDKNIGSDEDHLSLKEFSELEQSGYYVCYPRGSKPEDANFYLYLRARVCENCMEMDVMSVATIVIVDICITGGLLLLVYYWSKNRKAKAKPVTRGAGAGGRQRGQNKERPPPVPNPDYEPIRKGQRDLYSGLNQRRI

Binder | EC50 [1] | EC50 [2] | EC50 [3] | EC50 [4] | EC50 [5]
B1 | 0.014 µM | 0.0484 µM | 0.00278 µM | – | –
B2 | – | – | 0.0172 µM | 0.0707 µM | 0.182 µM
